T1: rat CCR8 (rat, UniProt P56484 1-353 (mouse entry))
T1 construct: Transiently expressed on HEK293T
T1 chain: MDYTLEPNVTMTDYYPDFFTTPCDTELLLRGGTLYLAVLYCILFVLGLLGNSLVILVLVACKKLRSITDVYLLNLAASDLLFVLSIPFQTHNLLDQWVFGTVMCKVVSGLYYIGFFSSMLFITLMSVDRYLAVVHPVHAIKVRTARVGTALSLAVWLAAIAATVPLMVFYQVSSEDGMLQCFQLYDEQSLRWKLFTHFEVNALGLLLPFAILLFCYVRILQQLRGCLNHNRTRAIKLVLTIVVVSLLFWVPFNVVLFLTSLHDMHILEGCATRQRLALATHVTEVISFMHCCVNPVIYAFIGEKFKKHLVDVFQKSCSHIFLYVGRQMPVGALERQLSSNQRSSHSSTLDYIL

T2: murine CCR8 (murine, UniProt P56484 1-353)
T2 construct: Transiently expressed on HEK293T; also called Mouse CCR8; mCCR8
T2 sequence: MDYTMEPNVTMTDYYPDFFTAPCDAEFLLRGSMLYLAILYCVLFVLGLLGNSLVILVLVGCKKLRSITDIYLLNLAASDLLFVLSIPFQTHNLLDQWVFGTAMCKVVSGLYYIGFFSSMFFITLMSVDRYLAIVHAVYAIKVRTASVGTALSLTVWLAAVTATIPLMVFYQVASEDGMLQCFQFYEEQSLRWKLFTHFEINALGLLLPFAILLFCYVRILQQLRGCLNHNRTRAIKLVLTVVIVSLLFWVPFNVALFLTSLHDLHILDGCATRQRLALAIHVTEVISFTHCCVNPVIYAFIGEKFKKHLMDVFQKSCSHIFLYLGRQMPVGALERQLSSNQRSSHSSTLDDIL

T3: human CCR4 (human, UniProt P51679 1-360)
T3 construct: Transiently expressed on HEK293T; also called hCCR4
T3 sequence: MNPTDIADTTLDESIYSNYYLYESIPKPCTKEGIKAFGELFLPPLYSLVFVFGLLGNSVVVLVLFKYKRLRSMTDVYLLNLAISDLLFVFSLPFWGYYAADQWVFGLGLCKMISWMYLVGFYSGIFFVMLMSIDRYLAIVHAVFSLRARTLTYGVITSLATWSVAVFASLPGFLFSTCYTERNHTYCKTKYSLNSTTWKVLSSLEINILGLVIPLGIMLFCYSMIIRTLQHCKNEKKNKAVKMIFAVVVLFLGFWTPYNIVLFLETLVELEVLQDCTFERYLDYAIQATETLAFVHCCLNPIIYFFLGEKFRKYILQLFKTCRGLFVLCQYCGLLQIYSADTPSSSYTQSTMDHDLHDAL


Legend:
rat CCR8 = biological target: T1, rat CCR8; assay: flow cytometry, HEK293T transfectants, supernatant 5 ug/mL
Text: (§1) Transfected cells were used to assess an antibody's binding specificity using flow cytometry on host Human Embryonic Kidney (HEK) 293T cells. Proteins were expressed on HEK 293T cells by transfection using human CCR8 (SEQ ID NO: 21), human CCR8 with an A27G point mutation (SEQ ID NO: 23), murine CCR8 (SEQ ID NO: 24), rat CCR8 (SEQ ID NO: 25), human CCR4 (SEQ ID NO: 26), or control expression vectors, Gibco™ Opti-MEM® media (Gibco), and 293Fectin™ reagent (Invitrogen) according to the manufacturer's instructions. Human T-cell lymphoma (HuT78) cell lines were also used to determine specificity to endogenously expressed CCR8.
(§2) Transfected HEK293T cells (24 hours after transfection) or HuT78 cells were resuspended in FACS buffer (PBS+2% Fetal Bovine Serum) and added to a 96-well plate. Hybridoma supernatant samples containing control antibodies 433H (BD Biosciences) or L263G8 (BioLegend), Antibody 1 IgG2, or Antibody 2 IgG2 were added at a final concentration of 5.0 μg/mL, cells were resuspended and incubated for 1 hour at 4° C. Plates were washed twice with FACS buffer, centrifuged to pellet the cells, and supernatant was removed and resuspended in FACS buffer to remove unbound antibodies.
(§3) Alexa Fluor 647 goat anti-human or rat IgG (Fcγ fragment specific) secondary antibodies (Jackson ImmunoResearch) made up in FACS buffer at 5.0 μg/mL were added to each well, and cells were resuspended and incubated for 15 minutes at 4° C. Plates were washed twice with FACS buffer, centrifuged to pellet the cells, and supernatant was removed and resuspended in FACS buffer to remove unbound secondary antibodies. Samples were resuspended in FACS buffer and read on either IntelliCyt® iQue or BD Accuri™ Flow Cytometer with an Intellicyt HyperCyt autosampler.

[1] = biological target: T4, human CCR8 with an A27G point mutation (human, UniProt P51685 1-355); assay: as above
T4 construct: Transiently expressed on HEK293T; also called Human CCR8 [A27G]; humanCCR8[A27G]
Text: as §1, §2, §3

murine CCR8 = biological target: T2, murine CCR8; assay: as above
Text: as §1, §2, §3

human CCR8 = biological target: T5, human CCR8 (human, UniProt P51685 1-355); assay: KinExA, HUT78 cells
T5 construct: Transiently expressed on HEK 293T cells, or endogenous on HuT78/HUT78 cells and primary human regulatory T cells; also called hCCR8; human C-C chemokine receptor type 8
Experimental: The cells were counted using a hemocytometer. The HUT78 cells were titrated and incubated with two different constant antibody concentrations, one at 48 pM and the other at 2 nM, in HUT media (RPMI 1640, 10% FBS, 10 mM HEPES, 2 mM L-Glut, 1 mM Sod. Pyr, 0.1 mM NEAA, 50 uM 2-ME) with 0.05% Sodium Azide. For the high [Ab] equilibrium set, HUT78 cells were titrated from 62.5 million per milliliter concentration 1:2 for 10 points in eppendorf tubes and equilibrated with 2 nM antibody in a total volume of 400 μl. For the low [Ab] equilibrium set, HUT78 cells were titrated from 3.89 million per milliliter concentration, 1:2 for 10 points in 50 ml Fulcon tubes and equilibrated with 48 pM antibody in a total volume of 15.5 mL.
For each equilibrium sample the free [Ab] was detected by running the equilibrium samples through the coated beads followed by a quick wash with the running buffer (1×PBS pH7.4+1% BSA+0.05% Sodium Azide). The secondary detection antibody (goat anti-huIgG (H+L) Alexa 647) was run through the flow cell at 680 ng/ml and 500 μL per run. The KinExA voltage output signal was used in KinExA software to calculate the Kd. […]
Cells in media were serially diluted and incubated with 48 pM or 2 nM active binding site concentration of antibody in media in the presence of 0.05% NaN3, and allowed to equilibrate. The free mAb left in the supernatant was measured as described above. […]

human CCR4 = biological target: T3, human CCR4; assay: flow cytometry, HEK293T transfectants
Text: as §1
Transfected HEK293T cells (24 hours after transfection) or HuT78 cells were resuspended in FACS buffer (PBS+2% Fetal Bovine Serum) and added to a 96-well plate. […]
as §3, with “Plates were washed twice with FACS buffer, centrifuged to pellet the cells, and supernatant was removed and resuspended in FACS buffer to remove unbound secondary antibodies.” left out

T4 sequence (P51685 whole entry A27G): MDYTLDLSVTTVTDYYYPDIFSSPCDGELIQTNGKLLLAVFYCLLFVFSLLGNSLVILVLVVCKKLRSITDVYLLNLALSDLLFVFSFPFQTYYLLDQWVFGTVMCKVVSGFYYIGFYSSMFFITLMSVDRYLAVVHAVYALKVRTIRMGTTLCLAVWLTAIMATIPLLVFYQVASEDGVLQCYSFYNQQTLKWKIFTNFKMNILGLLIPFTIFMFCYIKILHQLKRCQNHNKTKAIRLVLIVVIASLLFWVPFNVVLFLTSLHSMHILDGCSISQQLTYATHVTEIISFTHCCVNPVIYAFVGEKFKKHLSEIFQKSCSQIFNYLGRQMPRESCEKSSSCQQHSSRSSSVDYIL
T5 sequence (P51685 whole entry): as the sequence (P51685 whole entry A27G) above, with G27A counted along it

binding by FACS (read-out not named) (rat CCR8) | binding by FACS (read-out not named) [1] | binding by FACS (read-out not named) (murine CCR8) | Kd (human CCR8) [nM] | binding result (human CCR4) | Binder
105000 | 36900 | 24700 | 0.216 | no binding (tested: 5.0 ug/mL) | Antibody 1 IgG2 (antibody, IgG2; tested as hybridoma supernatant) heavy: EVQLVESGGGLVKPGGSLRLSCAASGFTFSNARMGWVRQAPGKGLEWVGRIKSKTEGGTRDYAAPVKGRFTISRDDSKNTLYLQMNSLKTEDTAVYYCTSYSGVWGQGTMVTVSSASTKGPSVFPLAPCSRSTSESTAALGCLVKDYFPEPVTVSWNSGALTSGVHTFPAVLQSSGLYSLSSVVTVPSSNFGTQTYTCNVDHKPSNTKVDKTVERKCCVECPPCPAPPVAGPSVFLFPPKPKDTLMISRTPEVTCVVVDVSHEDPEVQFNWYVDGVEVHNAKTKPREEQFNSTFRVVSVLTVVHQDWLNGKEYKCKVSNKGLPAPIEKTISKTKGQPREPQVYTLPPSREEMTKNQVSLTCLVKGFYPSDIAVEWESNGQPENNYKTTPPMLDSDGSFFLYSKLTVDKSRWQQGNVFSCSVMHEALHNHYTQKSLSLSPGK light: not shown
11000 | 24200 | 3600 | > 5 | no binding (tested: 5.0 ug/mL) | Antibody 2 IgG2 (antibody, V domains shown, IgG2; tested as hybridoma supernatant) VH: QVQLVESGGGVVQPGRSLRLSCAASGFTFSNYGMHWVRQAPGKGLEWVAVISYDGSNKFYADSVKGRFTISRDNSKKTLYLQMSSLRVEDTAVYYCARAGGIGRFDYWGQGTLVTVSS VL: DFVMTQTPLSLSVTPGQPASISCKYSQSLLHSDGKTYLFWYLQKPGQPPHLLIYEVSNRFSGVPDRFSGSGSGTDFTLKISRVEAEDVGLYYCMQTLKLPLTFGGGTKVEINR

Source: patent publication US20250171549A1 (Amgen, published 2025)
